Values quoted from earlier work in PMC12524660.

Molecular target: Cys156 (UniProt position 156, VSNASCTTNCL)

## Cytosolic NAD-dependent glyceraldehyde-3-phosphate dehydrogenase C1 (GAPC1) (Arabidopsis thaliana)
  pKa: below pH 6
